Consider eight molecules from US6143507A, “High throughput compatible assay for receptor-TRAF interactions” (Boehringer Ingelheim Pharmaceuticals, Inc., priority 1998, dated 2000).

Residues, ends and D or L forms follow the SMILES beside them.

As usually defined, the IC50 is the concentration that inhibits the measured activity by half.

In one test the target is T1, CD40c-TRAF2 interaction (Homo sapiens, UniProt Q12933).
T1 construct: 1 and 2, respectively; made in house; host or cells: TRAF2(NC)-CA21: Spodoptera frugiperda Sf21 cells (baculovirus); CD40c: Escherichia coli BL21 (DE3)
T1 sequence (Q12933 with tags, fused parts or gaps): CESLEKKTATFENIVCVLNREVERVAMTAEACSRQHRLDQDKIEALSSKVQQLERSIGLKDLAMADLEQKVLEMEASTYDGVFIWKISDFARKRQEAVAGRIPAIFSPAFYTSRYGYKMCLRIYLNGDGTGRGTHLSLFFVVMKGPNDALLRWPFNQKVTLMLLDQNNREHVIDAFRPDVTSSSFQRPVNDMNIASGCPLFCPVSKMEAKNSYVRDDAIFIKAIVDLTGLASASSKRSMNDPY
The test can be described thus: Flashplate assay of CD40c-TRAF2 interaction (biotin-CD40c, TRAF2(NC)-CA21, 125I-CA21 Fab). The format is binding. Conditions: 0.44 μg/ml biotin-CD40c; for IC50: 5 μg/ml TRAF2(NC)-CA21, peptide preincubated with TRAF2(NC)-CA21, read-out: IC50 for inhibition of CD40c-TRAF2 interaction. The procedure: FIG. 2. Peptide antagonists of CD40c-TRAF2 interaction. Streptavidin flashplates were coated with 0.44 μg/ml biotin-CD40c. Stock solutions of peptides were prepared at 1 mg/ml in assay buffer and the pH verified. All peptides were assayed by preincubating with TRAF2(NC)-CA21 at a final peptide concentration of 0.5 mg/ml. Peptides were serially diluted 1.5-fold prior to addition of the TRAF2(NC)-CA21 (5 μg/ml final). Results are means of duplicate points except for the no inhibitor wells (none, closed circles) that are means i standard deviation of 11 replicates. A) Peptides AcPVQET-NH2 (closed squares), AcNTAAPVQET-NH2 (closed triangles), AcNTAAPVQETLH-NH2 (open triangles), CD30.B (AcDVMLSVEEEGKE-NH2, open circles); B) Peptides AcIQET-NH2 (closed squares), AcPIQET-NH2 (closed triangles), AcQEPQEINF-NH2 (open triangles), CD40c (open circles). The maximum signal in B) is less due to a difference in the decay of the ^125 I-Fab.
Significant signal was detectable as low as 0.054 μg/ml biotin-CD40c (FIG. 1). Standard conditions for the assay were selected to be 0.44 μg/ml CD40c and 5 μg/ml TRAF2(NC)-CA21. These conditions provided a signal/noise of eight to ten and a good dynamic range for the detection of inhibitors or enhancers. […] As noted by the manufacturer of the plates, low concentrations of detergents were strong inhibitors of the assay because they removed the streptavidin from the wells. […] The PVQET sequence in the CD40 cytoplasmic domain is essential for signaling through CD40 and is thought to be a core TRAF2 binding sequence. Devergne, O., et al (1996) Mol. Cell. Biol. 16, 7098-7108; Innui, W., et al (1990) Eur. J Immunol. 20, 1747-1753. Therefore several peptides around the PVQET sequence were tested for the ability to compete the CD40c-TRAF2 interaction (FIG. 2A). […] FIG. 2A.
Biotin-CD40c (0.5 μg/ml) was bound to streptavidin-coated 96-well scintillant-embedded plates (Flashplates, New England Nuclear, catalog #15112) overnight at 4° C. in D-PBS, 0.1 mM DTT, 0.01% BSA (100 μl/well). Plates were blocked for 2 hr at room temperature by the addition of Dulbecco's-PBS, 0.1 mM DTT, 1.0% BSA (100 μl/well). In a separate 96-well round bottom polypropylene plate peptide inhibitors were diluted in 40 mM HEPES, pH 7.5, 0.1 M NaCl, 1.0 mM MgCl2, 0.1 mM DTT, 0.01% BSA, and TRAF2(NC)-CA21 was added at a final concentration of 5 μg/ml. Plates were preincubated for 30 min at room temperature. After washing the biotin-CD40c-coated flashplate three times with D-PBS, 0.1 mM DTT, inhibitor-TRAF2(NC)-CA21 mixtures were transferred from the preincubation plate to the washed plate (100 μl/well). Alternatively, after washing the biotin-CD40c-coated flashplates, inhibitors were added directly without TRAF preincubation in a final volume of 50 μl 40 mM HEPES, pH 7.5, 0.1 M NaCl, 1.0 mM MgCl2, 0.1 mM DTT, 0.01% BSA, and 50 μl/well TRAF2(NC)-CA21 (10 μg/ml stock to make a final concentration of 5 μg/ml) was added. Flashplates were incubated for 1 hr at room temperature, washed three times with 40 MM HEPES, pH 7.5, 0.1 M NaCl, 1.0 mM MgCl2, 0.1 mM DTT, and 100 μl/well of [^125 I]CA21 Fab fragment at an adjusted specific activity of 0.08 μCi/well added in […] HEPES, pH […] 7.5, 0.1 M NaCl, 1.0 mM MgCl2, 0.1 mM DTT, 0.1% BSA. After a 1 hr incubation at room temperature plates were sealed and counted in a TopCount scintillation counter (Packard; one minute/well, 2 minute plate delay).

For another test, the target named is T2, TRAF2(NC)-CA21 (human).
T2 sequence: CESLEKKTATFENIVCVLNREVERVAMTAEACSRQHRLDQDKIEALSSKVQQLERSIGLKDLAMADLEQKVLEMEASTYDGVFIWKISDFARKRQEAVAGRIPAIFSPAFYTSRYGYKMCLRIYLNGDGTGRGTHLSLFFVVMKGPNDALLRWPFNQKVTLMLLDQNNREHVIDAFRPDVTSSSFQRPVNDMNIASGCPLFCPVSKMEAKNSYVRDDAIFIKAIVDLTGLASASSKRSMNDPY
Put plainly: flashplate competition assay, inhibition of TRAF2(NC)-CA21 binding to biotin-CD40c.

Test [1] concerns GST-CD40-TRAF interaction. Conditions: cited from earlier work.

Take Ac-PIQET-NH2 [PIQET, AcPIQET-NH2]: the 50% inhibitory concentration (IC50) at CD40c-TRAF2 interaction is about 70 µM. In the case of `CC[C@H](C)[C@H](NC(C)=O)C(=O)N[C@@H](CCC(N)=O)C(=O)N[C@@H](CCC(=O)O)C(=O)N[C@H](C(N)=O)[C@@H](C)O` [IQET, AcIQET-NH2] (Ac-IQET-NH2), the IC50 at CD40c-TRAF2 interaction was about 140 µM. In turn, “CD40c (nonbiotinylated CD40c polypeptide) (from UniProt P25942) (receptor)” returned an IC50 with TRAF2(NC)-CA21 (human) of 50 µM.

For the molecule Ac-PVQET-NH2 [PVQET, AcPVQET-NH2], at CD40c-TRAF2 interaction, the IC50 is about 90 µM. The “ability to inhibit (compete) CD40c-TRAF2 interaction, in words” value at CD40c-TRAF2 interaction (5 μg/ml TRAF2(NC)-CA21, peptides up to 0.5 mg/ml) is recorded as “most potent”. As to Ac-IQET-NH2 [AcIQET-NH2], in the test with TRAF2(NC)-CA21 (human), the half-inhibitory concentration (IC50) is 140 µM and the fold decrease of inhibitory activity against PIQET stood at 2 fold.

B1: CD40c: 62 amino acid human CD40 cytoplasmic domain (amino acids 216-277) expressed in E. coli (protein)
chain: KKVAKKPTNKAPHPKQEPQEINFPDDLPGSNTAAPVQETLHGCQPVTQEDGKESRISVQERQ
modifications: also: biotinylated via D-biotinoyl-aminocaproic acid NHS ester, one or two biotin per molecule, sites not given here
notes: 62 amino acid human CD40 cytoplasmic domain (amino acids 216-277) expressed in E. coli
Turning to B1, in the test with CD40c-TRAF2 interaction, the 50% inhibitory concentration (IC50) was about 50 µM. In test [1], the “ability to compete for GST-CD40-TRAF interaction” value is listed as “weak ability to compete”. On to Ac-PVQET-NH2 [AcPVQET-NH2], for which the IC50 with TRAF2(NC)-CA21 (human) was determined as 90 µM. In the test with TRAF2(NC)-CA21 (human), Ac-PIQET-NH2 [AcPIQET-NH2] had a concentration for half-maximal inhibition (IC50) of 70 µM.
